Positions count from the first letter of the chain named. In names and notes the source's numbering stands.
B1: Nanobody Sim4784 (rank 7), monomeric (monovalent format) (VHH)
VHH: QVQLQESGGGLVQAGGSLRLSCAASGTISPPTYMGWYRQAPGKERELVASIGAGSNTNYADSVKGRFTISRDNAKNTVYLQMNSLKPEDTAVYYCAAIFGRLWYHLYWGQGTQVTVSS
notes: source: E. coli BL21-DE3 (pET-26b), purified (protein A, Ni-NTA); not shown: V5, C-terminal, kept
B2: MAS-related GPR family member X2 (MRGPRX2), endogenous on ROSA mast cells (receptor, human (endogenous in ROSA), UniProt Q96LB1 1-330, looked up)
chain: MDPTTPAWGTESTTVNGNDQALLLLCGKETLIPVFLILFIALVGLVGNGFVLWLLGFRMRRNAFSVYVLSLAGADFLFLCFQIINCLVYLSNFFCSISINFPSFFTTVMTCAYLAGLSMLSTVSTERCLSVLWPIWYRCRRPRHLSAVVCVLLWALSLLLSILEGKFCGFLFSDGDSGWCQTFDFITAAWLIFLFMVLCGSSLALLVRILCGSRGLPLTRLYLTILLTVLVFLLCGLPFGIQWFLILWIWKDSDVLFCHIHPVSVVLSSLNSSANPIIYFFVGSFRKQWRLQQPILKLALQRALQDIAEVDHSEGCFRQGTPEMSRSSLV
notes: MAS-related GPR family member X2 (MRGPRX2), a GPCR, endogenously expressed at high levels on the ROSA mast cell line; source: endogenous, on ROSA mast cells (immortalized mast cell line)
B3: human N-terminal FLAG-tagged MRGPRX2, on transfected HEK293T cells (receptor, UniProt Q96LB1 1-330, looked up)
chain: B2 chain
notes: MRGPRX2, human, N-terminal FLAG-tagged, in a pcDNA3.1 expression vector; also called FLAG-MRGPRX2; wild type MRGPRX2; source: HEK293T, transiently transfected (pcDNA3.1), on cells; not shown: FLAG, N-terminal, kept
B4: Nanobody Sim8619 (rank 1) with an R102A mutation (VHH)
VHH: QVQLQESGGGLVQAGGSLRLSCAASGSIFYIRGMGWYRQAPGKERELVAGIDVGAITYYADSVKGRFTISRDNAKNTVYLQMNSLKPEDTAVYYCAVWAYTAAGYTTVYAYWGQGTQVTVSS
notes: as the nanobody of m5 (Sim8619); the ROSA cell assay is told only for Fc fusions, nanobody variants are told as monomers from E. coli; also called R102A mutant; Sim8619 R102A
B5: Nanobody Sim8619 (rank 1), monomeric (monovalent format) (VHH)
VHH: B4 VHH with A102R
notes: as for B1
B6: Nanobody Sim9877 (rank 5), monomeric (monovalent format) (VHH)
VHH: QVQLQESGGGLVQAGGSLRLSCAASGYISSFPVMGWYRQAPGKERELVAAIGSGGITYYADSVKGRFTISRDNAKNTVYLQMNSLKPEDTAVYYCAVAGYNIGSYYYWGQGTQVTVSS
notes: as for B1

Assays:
Conditions in all cases: one partner purified
[1] = target: B3; assay: flow cytometry on cells; monomeric nanobody or variant with V5 tag, 1-2 h at 4 °C, on HEK293T cells transfected with FLAG-MRGPRX2, FLAG-MC4R, FLAG-CXCR3 or empty vector; HBS + 0.1% BSA + 2 mM calcium; anti-V5-APC
[2] = target: T1, FLAG-MC4R, on transfected HEK293T cells (Homo sapiens (Human)., UniProt P32245); assay: as above
T1 construct: source: HEK293T, transiently transfected, on cells
T1 sequence (P32245 whole entry): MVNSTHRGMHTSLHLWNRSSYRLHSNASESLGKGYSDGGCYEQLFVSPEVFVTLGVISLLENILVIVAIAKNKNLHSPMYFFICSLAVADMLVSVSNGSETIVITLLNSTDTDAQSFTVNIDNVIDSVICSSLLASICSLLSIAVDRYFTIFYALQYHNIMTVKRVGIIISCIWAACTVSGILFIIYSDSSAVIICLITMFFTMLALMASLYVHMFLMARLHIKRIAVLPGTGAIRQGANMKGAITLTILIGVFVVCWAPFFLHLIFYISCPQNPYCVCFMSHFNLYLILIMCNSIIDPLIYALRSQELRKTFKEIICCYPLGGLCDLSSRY

[3] = target: T2, Nanobody Sim8619 (rank 1), human IgG1 Fc fusion; assay: flow cytometry on cells; dose response of nanobody on ROSA mast cells (100,000 cells per well), 30 min at 4 °C; anti-human IgG Fc-AF488; MFI; for Kd the non-specific signal was the MFI with Nb 60
T2 construct: (GGS)3 linker between the nanobody and the Fc; cloned into pFUSE-CHIg-hG1 with H435A in the Fc; also called Nb Sim 8619; source: Expi293F, transiently transfected, purified (protein A); not shown: Fc (human IgG1, H435A), C-terminal, kept

[4] = target: T3, Nanobody Sim4784 (rank 7), human IgG1 Fc fusion; assay: as above
T3 construct: (GGS)3 linker between the nanobody and the Fc; cloned into pFUSE-CHIg-hG1 with H435A in the Fc; source: Expi293F, transiently transfected, purified (protein A); not shown: Fc (human IgG1, H435A), C-terminal, kept

[5] = target: T4, Nanobody Sim9877 (rank 5), human IgG1 Fc fusion; assay: as above
T4 construct: (GGS)3 linker between the nanobody and the Fc; cloned into pFUSE-CHIg-hG1 with H435A in the Fc; also called Nb Sim9877; source: Expi293F, transiently transfected, purified (protein A); not shown: Fc (human IgG1, H435A), C-terminal, kept

[6] = target: T2, Nanobody Sim8619 (rank 1), human IgG1 …; assay: flow cytometry on cells; nanobody-Fc at the indicated concentrations, 1 h at 4 °C, on HEK293T cells transfected with FLAG-MRGPRX2, MRGPRX2 E164A D184A or empty vector; HBS + 2% FBS + 0.05% BSA; anti-human Fc-AF647; non-specific signal from empty-vector cells
[7] = target: T3, Nanobody Sim4784 (rank 7), human IgG1 …; assay: as above
[8] = target: T4, Nanobody Sim9877 (rank 5), human IgG1 …; assay: as above
[9] = target: B2; assay: flow cytometry on cells; dose response of nanobody on ROSA mast cells (100,000 cells per well), 30 min at 4 °C; anti-human IgG Fc-AF488; MFI; for Kd the non-specific signal was the MFI with Nb 60

Binder: B1
- binding result [1]: binds
- binding result [2]: binds

Binder: B2
- Kd [3]: 100 nM
- Kd [4]: 50 nM
- Kd [5]: 20 nM

Binder: B3
- Kd [6]: 200 nM
- Kd [7]: 80 nM
- Kd [8]: 160 nM

Binder: B4
- EC50 [9]: 210 nM

Binder: B5
- binding result [1]: binds

Binder: B6
- binding result [1]: binds

From PMC13315262, “In silico discovery of nanobody binders to a G-protein coupled receptor using AlphaFold-Multimer” (Nature Communications, 2026)
